Data set [1] concerns the target GST-XIP (D58A).
In data set [2] the target is GST-XIP (D70A).
The target of data set [3] is GST-XIP (D25A).
Data set [4] addresses GST-XIP (D25A, D70A).
Data set [5] concerns the target GST-XIP (D25A, D70A, D80A).
Data set [6] deals with GST-XIP (D39A) [GST: P08515].
Data set [7] addresses GST [GST: P08515].

The text below walks through data of patent US20060217299.

B1: caspase-1 (Calbiochem, Co., Ltd.) (protein)
chain: NPAMPTSSGSEGNVKLCSLEEAQRIWKQKSAEIYPIMDKSSRTRLALIICNEEFDSIPRRTGAEVDITGMTMLLQNLGYSVDVKKNLTASDMTTELEAFAHRPEHKTSDSTFLVFMSHGIREGICGKKHSEQVPDILQLNAIFNMLNTKNCPSLKDKPKVIIIQACRGDSPGVVWFKDSVGVSGNLSLPTTEEFEDDAIKKAHIEKDFIAFCSSTPDNVSWRHPTMGSVFIGRLIEHMQEYACSCDVEEIFRKVRFSFEQPDGRAQMPTTERVTLTRCFYLFPGH
With B1, the “caspase-1 protease assay (SDS-PAGE, western blotting with anti-GST antibody)” value in data set [1] is listed as “fragment located at the higher molecular weight side was detected; fragment located at the lower molecular weight side was detected when using GST-XIP (D58A)”; in data set [2], “fragment located at the higher molecular weight side not detected when using GST-XIP (D70A); fragment located at the lower molecular weight side was detected”; in data set [3], “fragment located at the higher molecular weight side was detected; fragment located at the lower molecular weight side not detected when using GST-XIP (D25A)”; in data set [4] it was “When using GST-XIP (D25A, D70A) as a substrate, a new fragment other than the aforementioned fragments was detected”; in data set [5] it was “This fragment was not detected when using GST-XIP (D25A, D70A, D80A) as a substrate”; in data set [6], “fragment located at the higher molecular weight side was detected; fragment located at the lower molecular weight side was detected when using GST-XIP (D39A)”. In addition, the “caspase-1 protease assay (SDS-PAGE, western blotting with anti-GST antibody)” value in data set [7] was “GST was not cleaved by caspase-1”.
